Reference: the nanobody polyreactivity screen of Harvey et al. (2022)

Test: yeast display, Sf9 membrane polyspecificity reagent, FACS + sequencing; frameworks hold sequencing errors
Method in brief: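 Using colony PCR, genes from sorted yeast display clones were amplified, then sequenced on MiSeq at 2 × 250 and filtered by CDR length. The clones had been stained with 10% biotinylated, detergent-solubilized Sf9 membrane reagent for 1 hour at 4 °C and sorted by FACS into low and high (top ~1%) gates on anti-HA and streptavidin fluorescence. Polyreactivity labels come from the gate of origin.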
For “QVQLVESGRGLVQAGGTLRLSCAASGSIFGYYAMGWYRQAPGKERELVASISGSGGTTYYADSVKGRFTISRDNAKNTVYLQMNSLNPEDTAVYYCAARRSIYGYPFVTSRRGYWGQGTQVTVSS”, the “polyreactivity (PSR sort gate)” value was “high polyreactivity”. With “QVQLVESGGGLVQAGGSLRLSCAASGSTFSTNAMGWYRQAPGKERDLVAAISRSGGSTYYADTVKRRFTISRDIAKITVYLQMNSLKPEVSAVYYCARYSYRGTNVSYDYWGQGTQVTVSS” the “polyreactivity (PSR sort gate)” value was “high polyreactivity”. With “QVQLKESGGGQVQAGGSLRLCCAASGKIIPDAGMGWYRQAPGKEREFVAGISRGANTYYADSVKGRFTISRDNAKNTLYLHMYSLKPEDTAVFYCAVNVPWTYQYGYWGQGTQVTVSS” the “polyreactivity (PSR sort gate)” value was “high polyreactivity”. For “QVQLVESGGGLVQAGGSLRLSCAASGLIFKYYAMGWYREAPGKERELVATITRGGGSTYYADSVKGRFTISRDNAKNTVYLQMNSLKPEDTAVYYCAADYWYVYPRYNPGDYWGQGTQVTVSS”, the “polyreactivity (PSR sort gate)” value was “high polyreactivity”. In the case of “QVQLVESGGGLVQAGGSLRLSCAASGRIFGSYAMGWYRQAPGKEREFVAAISVGSGSTYYADSVKGRFTISRDNAKNTVYLQMNSLKPEDTAVYYCAAENLYIDPRDWYGTWDTGYYWGQGTQVTVSS”, the “polyreactivity (PSR sort gate)” value was “high polyreactivity”. With “PVQLVESGGGLVQAGGSLRLSCAASGYTFSYNAMGWYRQAPGKERELVAAIYRGGRTYYADSVKGRFTISRDNAKNTVYLQMNSLKPEDTAVYYCAAKRWTTKNGFYEYPYYYWGQGTQVTVSS” the “polyreactivity (PSR sort gate)” value was “high polyreactivity”. For “QVQLVESGGGLVQAGGSLRLSCAASGRIFSLYAMGWYRQAPGKERELVAVITYRGGDSTYYADSVKGRFTISRDNAKNTVYLQMNSLKPEDTAVYYCAAGQPLYQRRHSSRTYYYWGQGTQVTVSS”, the “polyreactivity (PSR sort gate)” value was “high polyreactivity”. In the case of “QVQLVESGGGLVQAGGSLRLSCAASGRIFSYNARGWYRQAPGKEWELVAAISSGGSTYYADSVKGRFTISRDNAKKTVYLQMNSLKPEDTAVYYCAADRRYYSDLYYWGQGTQVTVSS”, the “polyreactivity (PSR sort gate)” value was “low polyreactivity”. With “QVQLVEAGGGLDQPGGSLRLSCAASGSTFYVNTRRWYIQAPGQELELVAAISSTGSSTYFADSVKGRFTISRDNAKNTVYLQMNSLKPEDTAVYYCAAESYRWWYLYDYYYWGQGTQVTVSS” the “polyreactivity (PSR sort gate)” value was “high polyreactivity”. With “QVQLVESGGGLVQAGGSLRLSCAASGFTFRKNAMGWYRQAPGKERELVAAISSGTSTYYADSVKGRFTISRDNAKNTVYLQMNSLKPEDTAVYYCAAARYRTDDYWGLGTQVTVSS” the “polyreactivity (PSR sort gate)” value was “high polyreactivity”. In the case of “QVQLVESGGGLVQAGGSLRLSCDASGSTFSYYAMGGYRQAPGKERELVAAISGRGGSTYYADSVKGRFTISRDNAKNTVYLQMNSLKPEDTAVYYCAKGRLYTAYGLYSWGQGTQVTVSS”, the “polyreactivity (PSR sort gate)” value was “high polyreactivity”. With “QVQLVESGGGLVQAGGSLRLSCAASGRTFIRYAMAWYRQAPGKGRELLAANNWSGSTYYADSVKGRFTISRDNAKNTVYVQINSLKPEDTAVYYCAAYPYGVTNAYGSWGQGTQVTVSS” the “polyreactivity (PSR sort gate)” value was “high polyreactivity”. For “QVQLVESGGGLVQAGGSLRLSCAASGFPFAKNAMGWYRQAPGKERELVAVITSSGGSTYYADSVKGRFTISRDNAKNTVYLQMNCLKPEDTAVYYCNVAYYYRSRSTGYEYWGQGTQVTVSS”, the “polyreactivity (PSR sort gate)” value was “high polyreactivity”. With “QVQLVESGGGLVQAGGSLRLSCAASGSTFVANVMGWYRQAPGKERELVAAINTNGGSTYYADSVKGRFTISRDNAKNTVYLQMNSLKPEDTAVYYCNKAWFRYWYGYWGQGTQVTVSS” the “polyreactivity (PSR sort gate)” value was “low polyreactivity”. In the case of “QVQLVESGGGLVQAGGSLRLSCAASGSIFYSNAMGWYRQAPGKERELVAAITRRGGSTYYADSVKGRFTISRDNAKNTVYLQMNSLKPEDTAVYYCAARYYRRFAHYGEYGYWGQGTQVTVSS”, the “polyreactivity (PSR sort gate)” value was “high polyreactivity”. For “QVQLVESGGGLVQAGGSLRLSCAASGRIFPYYDMGWYRQAPGKERELVAGITTSGGTTYADSVKGRFTISRDNAKNTVYLQMNSLKTEDTAVYYCNKLRLRLSRWTYDYWGHGTQVTVSS”, the “polyreactivity (PSR sort gate)” value was “low polyreactivity”. With “QVQLVESGGGLVQAGGSLRFSCAASGRTFTYYAMGWYRQAPGKERELVASIRKSGASTYYADSVKGRFTISRDKAKNTVYLQMNSLKPEETAVYYCNTAKGHGRYEYWGQGSQVTVSS” the “polyreactivity (PSR sort gate)” value was “high polyreactivity”. In the case of “QVQLVESGGALVQEAGSLRLRCAASGSIFDYKGMRWSRPAPGKERELVAAITSSGGSTYYADSVKGRFSISRDNAKNTDYLQMNSLIPEVSAFYYCAVDILYFPASYATQPVDYWGQGTQVTVSS”, the “polyreactivity (PSR sort gate)” value was “low polyreactivity”. With “QVQLVESGGGLVQAGGSLRLSCAASGIIFTKYAMGWYRQAPGKERELVAAITASGGSTYYADSVKGRFTISRDNAKNTVYLQMNSLKPEDTAVYYCAARSQSRYGYWGQGTQVTVSS” the “polyreactivity (PSR sort gate)” value was “high polyreactivity”. For “QVQLVESGGGLVQAGGSLLLSCAASGRIFRVYAMGWYRQAPGKERELVASITTSGSTYYADSVKGRFTISRDNAKNTVYLQMNSLKPEDTAVYYCAVDNYYTPWYPYLGYDSWGQGTQVTVSS”, the “polyreactivity (PSR sort gate)” value was “low polyreactivity”. With “QVQLVESGGGLVQAGGSLRLSCAASGFIFYAYAMGWYRQAPGKERELVAGISDSGASTYADSVKGRFTISRDNAKNTVYLQMNSLKPEDTAVYYCATTGYLSTKVYDEYGYWGQGTQVTVSS” the “polyreactivity (PSR sort gate)” value was “low polyreactivity”. With “QVQLVESWGGLVQAGASLRLSSAASGSIFGSYAMGSYRQAPGKERQLVAAITGIGGSTYYADSVKGRFTITRDNAKNTVYLQLNSLKPEDTAVYYCATRVRYRAPVVRGNYWGQGTQVTVSS” the “polyreactivity (PSR sort gate)” value was “high polyreactivity”. For “QVQLVESAGGLVQAGGRLRLSCAASGFTFKKYAMGWYRQAPGKERELVASITWSGGSTSYADSVKGRFTISRDNAKNTVYLQMTSLKPEDTAVYYCAAATFVYRLRYNRFDYGGQGTQVTVSS”, the “polyreactivity (PSR sort gate)” value was “high polyreactivity”. In the case of “QVQLQERGGRLVQAGGSLRLSCAASGSIFTQATMGCDRQAPGKERELVAAINFGSSTYYADSVKGRFTISRDNAKSTVYLQMNSLKPEDTAVYYCAVRALWYDFHDYWGQGTQVTVSS”, the “polyreactivity (PSR sort gate)” value was “high polyreactivity”. In the case of “QVQLVESGGGLVQAGGSLRLSCAASGSIFGYYAMGWYRQAPGNERELVAAISFSAGNTYYADSVKGRFTISRDNAKNTVYLQMNSLKPEDSAVYYCAADPKYWTGWIWTSGYDYWGQGTQVTVSS”, the “polyreactivity (PSR sort gate)” value was “high polyreactivity”. For “QVQLVESGGGLVQAGGSLRLSCAASGRIFHRNAMGWYRQAPGQERELVARITRSGTSTYYADSVKGRFTISRDNAKNTVYLQMNSLKPEDTAVYYCAADNASPSLGEYNYWGQGTQVTVSS”, the “polyreactivity (PSR sort gate)” value was “low polyreactivity”. With “QVQLVESGGGLVQAGGSLRLSCAASGSIRYNAMGWYRQAPGKERELVAAISYRGGTTYYADSVKGRYTISRDNAKNTVYLQMNSLKPEDTAVYYCNAGVRAYGYSAKYYYWGQGTQVTVSS” the “polyreactivity (PSR sort gate)” value was “high polyreactivity”. In the case of “QVQLVESGGGLVQAGGSLRLSCAASGSTFTDNGMVWYRQAPGKARELVAGISYSGGSTYYADSVKGRFRISRDNAKNTVYLQMNSLKPEDTAVYYCAADRGGYYLSEYDYWGQVTQVTVSS”, the “polyreactivity (PSR sort gate)” value was “low polyreactivity”. With “QVQLVESGGGLVQAGGSLRLSCAASGLILRKYAMGWYRQAPGKEREFVAAITQTGSRSYYADSVKGRFTISRDNAKNTVYLQMNSLKPEDTAVYYCAARGTRAYRTYDYWGQGTQVTVSS” the “polyreactivity (PSR sort gate)” value was “high polyreactivity”. With “HVQLVESGGGLVQAGGSLRLSCAASGFIFDVNAMGWYRQAPGKERELVAVIRGSGGSTYYADSVKGRFTISRDNAKNTVYLQMNSLKPADTAVYYCAAAVNHVAYHYNYWGQGTQVTVSS” the “polyreactivity (PSR sort gate)” value was “high polyreactivity”. In the case of “QVQLVESGGGLVQAGGSLRLSCAASGFIFAEYAMGWSRQAPGQEREFVATINIGGSTYYADSVKGRFTISRDNAKNTVYLQMNSLKPEDTAVYYCAAEFWWGDGSQGIYDYDYWGQGTQVTVSS”, the “polyreactivity (PSR sort gate)” value was “low polyreactivity”.
